# Laboratory results: IntAct's records for PubMed 29039417
# B1: Protein PTHB1 (Homo sapiens), Q3SYG4 (parent)
# chain: MSLFKARDWWSTILGDKEEFDQGCLCLANVDNSGNGQDKIIVGSFMGYLRIFSPHPAKTGDGAQAEDLLLEVDLRDPVLQVEVGKFVSGTEMLHLAVLHSRKLCVYSVSGTLGNVEHGNQCQMKLMYEHNLQRTACNMTYGSFGGVKGRDLICIQSMDGMLMVFEQESYAFGRFLPGFLLPGPLAYSSRTDSFLTVSSCQQVESYKYQVLAFATDADKRQETEQQKLGSGKRLVVDWTLNIGEQALDICIVSFNQSASSVFVLGERNFFCLKDNGQIRFMKKLDWSPSCFLPYCSVSEGTINTLIGNHNNMLHIYQDVTLKWATQLPHIPVAVRVGCLHDLKGVIVTLSDDGHLQCSYLGTDPSLFQAPNVQSRELNYDELDVEMKELQKIIKDVNKSQGVWPMTEREDDLNVSVVVSPNFDSVSQATDVEVGTDLVPSVTVKVTLQNRVILQKAKLSVYVQPPLELTCDQFTFEFMTPDLTRTVSFSVYLKRSYTPSELEGNAVVSYSRPTDRNPDGIPRVIQCKFRLPLKLICLPGQPSKTASHKITIDTNKSPVSLLSLFPGFASQSDDDQVNVMGFHFLGGARITVLASKTSQRYRIQSEQFEDLWLITNELILRLQEYFEKQGVKDFACSFSGSIPLQEYFELIDHHFELRINGEKLEELLSERAVQFRAIQRRLLARFKDKTPAPLQHLDTLLDGTYKQVIALADAVEENQGNLFQSFTRLKSATHLVILLIALWQKLSADQVAILEAAFLPLQEDTQELGWEETVDAAISHLLKTCLSKSSKEQALNLNSQLNIPKDTSQLKKHITLLCDRLSKGGRLCLSTDAAAPQTMVMPGGCTTIPESDLEERSVEQDSTELFTNHRHLTAETPRPEVSPLQGVSE
# partner: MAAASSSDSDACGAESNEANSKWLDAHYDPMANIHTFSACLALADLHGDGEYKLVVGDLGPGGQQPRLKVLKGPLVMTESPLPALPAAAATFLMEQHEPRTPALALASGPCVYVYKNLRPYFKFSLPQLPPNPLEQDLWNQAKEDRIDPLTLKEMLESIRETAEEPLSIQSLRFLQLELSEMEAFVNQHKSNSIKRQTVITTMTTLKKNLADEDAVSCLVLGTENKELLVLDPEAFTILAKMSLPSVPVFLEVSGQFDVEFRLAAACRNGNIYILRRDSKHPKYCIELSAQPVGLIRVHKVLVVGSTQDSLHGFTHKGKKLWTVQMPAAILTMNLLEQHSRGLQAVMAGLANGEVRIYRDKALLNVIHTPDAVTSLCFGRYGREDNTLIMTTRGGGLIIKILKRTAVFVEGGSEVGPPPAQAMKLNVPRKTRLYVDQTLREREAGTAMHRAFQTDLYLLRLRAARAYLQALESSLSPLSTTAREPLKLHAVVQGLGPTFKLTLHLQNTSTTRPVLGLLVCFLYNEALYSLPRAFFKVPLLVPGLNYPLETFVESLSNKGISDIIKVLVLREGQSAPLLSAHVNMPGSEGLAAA
# Variants of: B1
# Conditions: with bbs1_human BBS1, Q8NFJ9
row,Variant,effect of a mutation on the interaction
1,F472E,with no effect
2,F472K,with no effect
3,S596E,with no effect
4,L681K,with no effect
5,E431K,with no effect
6,L467E,with no effect
7,L467K,with no effect
8,D435E,with no effect
9,F582E,with no effect
10,A712E,with no effect
11,K743A,with no effect
12,D762A,with no effect
13,L692K,with no effect
14,P802K,with no effect
15,G628K,with no effect
16,A730K,with no effect
17,A730E,with no effect
18,L733E,with no effect
19,I640K,with no effect
20,C826K,with no effect
21,N866A,with no effect
22,V450E,with no effect
23,I519E,with no effect

row,Variant,effect of a mutation on the interaction
1,W768A,with no effect
2,Y703K,with no effect
3,E607V,disrupting interaction strength
4,S820E,with no effect
5,H651E,with no effect
6,S729E,with no effect
7,L609E,with no effect
8,S507F,disrupting interaction strength
9,I657A,with no effect
10,C525K,with no effect
11,L793E,with no effect
12,V505E,with no effect
13,P641K,with no effect
14,T405A,with no effect
15,N800K,with no effect
16,T512A,with no effect
17,K685A,with no effect
18,M837S,disrupting interaction strength
19,M837E,with no effect
20,F684K,with no effect
21,T484K,with no effect
22,A831K,with no effect
23,I676K,with no effect

row,Variant,effect of a mutation on the interaction
1,I676E,with no effect
2,W741E,with no effect
3,K728E,with no effect
4,T482P,disrupting interaction strength
5,L698A,with no effect
6,G518K,with no effect
7,H546K,with no effect
8,A675E,with no effect
9,E647K,with no effect
10,T496A,with no effect
11,F646K,with no effect
12,A833E,with no effect
13,H732K,with no effect
14,N515K,with no effect
15,D571E,with no effect
16,A754E,with no effect
17,Q672K,with no effect
18,Q426E,with no effect
19,H652K,with no effect
20,F756E,with no effect
21,S545E,with no effect
22,D850E,with no effect
23,T478E,with no effect

row,Variant,effect of a mutation on the interaction
1,I612E,with no effect
2,R521T,disrupting interaction strength
3,V522E,with no effect
4,L655A,with no effect
5,P877K,with no effect
6,Q791A,with no effect
7,V430K,with no effect
8,E878K,with no effect
9,D773E,with no effect
10,G585K,with no effect
11,K781E,with no effect
12,H778K,with no effect
13,S855K,with no effect
14,N412K,with no effect
15,H694Y,disrupting interaction strength
16,D817E,with no effect
17,L662K,with no effect
18,L642E,with no effect
19,F476K,with no effect
20,F476E,with no effect
21,F624E,with no effect
22,L737E,with no effect
